The target of this assay is SARS-CoV-2 (Wuhan-Hu-1 strain) wild-type spike RBD with C-terminal 8xHis (SARS-CoV-2, UniProt P0DTC2 319-541). Nature of the assay: BLI. In general terms: BLI is a label-free optical method that tracks binding on a fibre tip over time.

B1: 7F3 (antibody, V domains shown)
VH: EVQLVESGGGLVKPGRSLRLSCTASGFTFGDYAMSWFRQAPGKGLEWVGFIRSKAYGGTTEYAASVKGRFTISRDDSKSIAYLQMNSLKTEDTAVYYCTRDRYARYDILTGLSPAGADYFYYAMDVWGQGTTVTVSS
VL: EIVLTQSPATLSLSPGERATLSCRASQSVSSYLAWYQQKPGQAPRLLIYDASNRATGIPARFSGSGSGTDFTLTISSLEPEDFAVYYCQQRSNWPQYTFGQGTKLEIK
For B1, the Kd (as a rule, the concentration at which binding is half-saturated) is below 0.01 nM.

B2: LY-CoV1404 (antibody, V domains shown)
VH: QITLKESGPTLVKPTQTLTLTCTFSGFSLSISGVGVGWLRQPPGKALEWLALIYWDDDKRYSPSLKSRLTISKDTSKNQVVLKMTNIDPVDTATYYCAHHSISTIFDHWGQGTLVTVSS
VL: QSALTQPASVSGSPGQSITISCTATSSDVGDYNYVSWYQQHPGKAPKLMIFEVSDRPSGISNRFSGSKSGNTASLTISGLQAEDEADYYCSSYTTSSAVFGGGTKLTVL
Regarding B2, the Kd was below 0.01 nM.

For the origin of these results see publication PMC11180174 (2024).
